The structures appear in SMILES notation.

The subject of one data set is MDA-MB-231 tumor cells. Briefly: MDA-MB-231 murine xenograft efficacy model. In kind it is in vivo, BALB/c Nude mice. As for the experimental part: Murine xenograft experiments were conducted at WuXi AppTec and/or Charles River Laboratories and the care and use of animals was conducted in accordance with the regulations of the Association for Assessment and Accreditation of Laboratory Animal Care (AAALAC). MDA-MB-231 tumor cells (ATCC, Manassas, VA, cat #HTB-26) were grown and maintained in L15 medium supplemented with 10% heat inactivated fetal bovine serum, 1% Antibiotic-Antimycotic, and L-glutamine (2 mM) at 37° C. in an atmosphere in 5% CO2, 95% air. BALB/c Nude, female, 6-8 weeks, weighing approximately 18-22 g were purchased from Vital River Laboratory Animal Technology Co., LTD. Mice were inoculated subcutaneously at the right flank with MDA-MB-231 tumor cells (e.g., triple negative breast cancer cells) (10×10^6) in 0.2 mL of PBS with Matrigel (1:1) for tumor development. Animals were randomized and treatment was started when the average tumor volume reached approximately 150-200 mm^3 for the efficacy study. Dosing volume was adjusted based on body weight and was administered at 10 ml/Kg. […] Free MMAE payload was also tested, and similarly dissolved in 25 mM Histidine 10% sucrose pH 7 and one or more of the following doses, 0.6, 0.06 mg/kg, were administered to the mice i.v. at a QW×4 schedule. Tumor sizes were measured twice weekly in two dimensions using a caliper, and the volume in mm^3 calculated using the formula: V=0.5 a×b^2, where a and b are the long and short diameters of the tumor, respectively. TGI was calculated for each group using the formula: TGI (%)=[1−(Ti−T0)/(Vi−V0)]×100; where Ti is the average tumor volume of a treatment group on a given day, T0 is the average tumor volume of the treatment group on the first day of treatment, Vi is the average tumor volume of the vehicle control group on the same day with Ti, and V0 is the average tumor volume of the vehicle group on the first day of treatment.

Data set [1] in a line: Murine hematotoxicity assay. The format is in vivo, BALB/c mice. The settings on record: 3 mg/kg i.v. QW×4, compared to vehicle or MMAE treatment. As for the experimental part:
Murine hematotoxicity experiments were conducted at Charles River Laboratories and the care and use of animals was conducted in accordance with the regulations of the Association for Assessment and Accreditation of Laboratory Animal Care (AAALAC). Wild type BALB/c, female, 7-8 weeks, weighing approximately 18-22 g were randomized and dosed intravenously with control or test articles at a QW×4 schedule. Dosing volume was adjusted based on body weight and was administered at 10 mL/Kg. PDCs were dissolved in 25 mM Histidine 10% sucrose pH 7 and 3 mg/kg was administered. Free MMAE payload was also tested, and similarly dissolved in 25 mM Histidine 10% sucrose pH 7 and administered to the mice at a dose of […] by i.v. injection at a QW×4 schedule. 3 days following each dose, 150 μL of whole blood was collected via submandibular method and placed in K2 EDTA tubes stored on ice. Blood neutrophil counts were performed on the day of collection by IDEXX labs. Body weights were recorded twice a week until study endpoint.
As outlined in the material and methods of Example 1, wild type BALB/c, female, 7-8 weeks, weighing approximately 18-22 g were randomized and dosed intravenously with control or test articles at a QW×4 schedule. Dosing volume was adjusted based on body weight and was administered at 10 ml/Kg. […] Free MMAE payload was also tested, and similarly dissolved in 25 mM Histidine 10% sucrose pH 7 and administered to the mice at a dose of […] by i.v. injection at a QW×4 schedule. 3 days following each dose, 150 μL of whole blood was collected via submandibular method and placed in K2 EDTA tubes stored on ice. Blood neutrophil counts were performed on the day of collection by IDEXX labs. Body weights were recorded twice a week until study endpoint.

Data set [2] in a line: Maximum tolerated dose (MTD) study. In kind it is in vivo, BALB/c Nude mice. Particulars: for body weight loss: after 48 hrs. As to the method: BALB/c Nude mice, female, 6-8 weeks, weighing approximately 18-22 g were purchased from the Shanghai SLAC Laboratory Animal Co., LTD. MTD studies were conducted at WuXi AppTec and the care and use of animals was conducted in accordance with the regulations of the Association for Assessment and Accreditation of Laboratory Animal Care (AAALAC). Two MTD studies were performed (a) a low dose study with doses ranging from 0.1, 0.5, 1 and 3 mg/kg and (b) a high dose study with doses ranging from 3, 5, 10 mg/kg. Dosing volume was determined based on body weight (10 ul/g) and PDCs were dissolved in 25 mM Histidine 10% sucrose pH 7 and administered i.v. at a single dose at day 0. The treatment and observation were conducted up to 7 days and MTD was defined by ≥20% body weight loss. Body weights were measured daily, death and observed clinical signs were recorded.
Doses of 3, 5, and 10 mg/kg were administered. MTD was defined by ≥20% body weight loss and body weight measured daily.

Data set [3] is described as follows: Murine plasma stability assay. In kind it is in vitro ADME. Particulars: mouse, 37° C., read-out: Murine plasma stability assay, T1/2. As for the experimental part:
Frozen plasma was thawed at 37° C. and centrifuged at 4000 rpm to remove any clots and transferred to 96-well reaction plates by WuXi AppTec. Test compounds were added to the reaction plate at a final concentration of 2 μM and either stopped immediately or incubated at 37° C. for 5 minutes, 10 minutes, 30 minutes, 60 minutes, or 120 minutes. At the end of incubation, stop solution consisting of 200 ng/mL tolbutamide and 200 ng/mL labetalol in ACN was added to precipitate protein and mixed thoroughly. Samples were then transferred to a bioanalysis plate and shaken for 10 minutes prior to HPLC-MS/MS analysis of percent remaining compound.

Regarding `CC[C@H](C)[C@@H]([C@@H](CC(=O)N1CCC[C@H]1[C@H](OC)[C@@H](C)C(=O)N[C@H](C)[C@@H](O)c1ccccc1)OC)N(C)C(=O)[C@@H](NC(=O)[C@H](C(C)C)N(C)C(=O)OCc1ccc(NC(=O)[C@H](CCCNC(N)=O)NC(=O)[C@@H](NC(=O)CCCC(=O)NCCC(=O)N(C)CC(=O)N(C)CC(=O)N(C)CC(=O)N(C)CC(=O)N[C@@H](C)C(=O)N2CCC[C@H]2C(=O)N[C@@H](CCCNC(=N)N)C(=O)N[C@@H](Cc2c[nH]c3ccccc23)C(=O)N[C@@H](CC(=O)O)C(=O)N[C@@H](C)C(=O)N2CCC[C@H]2C(=O)N[C@@H](CC(C)C)C(=O)N[C@@H](CCCNC(=N)N)C(=O)N[C@@H](CC(=O)O)C(=O)N2CCC[C@H]2C(=O)N[C@@H](C)C(=O)N[C@@H](CC(C)C)C(=O)N[C@@H](CCCNC(=N)N)C(=O)N[C@@H](CCC(N)=O)C(=O)N[C@@H](CC(C)C)C(=O)N[C@@H](CC(C)C)C(=O)O)C(C)C)cc1)C(C)C` [PRGN_WT_PDC], the “tumor growth inhibited relative to vehicle” value with MDA-MB-231 tumor cells (3 mg/kg i.v. QW×4, day 22 (Example 8)) was found to be 96%. Further, the “tumor growth inhibition” value in the data set with MDA-MB-231 tumor cells (3, 1, 0.3 mg/kg i.v. QW x 4) is listed as “dose-dependent tumor growth inhibition”. The body weight variation result in the data set on MDA-MB-231 tumor cells (Example 6, PDC 3, 1, 0.3 mg/kg, free MMAE at equivalency to 3 mg/kg PDC) is reported as “mirrored that observed with vehicle treatment”. Further, the body weight loss result in the data set on MDA-MB-231 tumor cells (Example 8, PDC 3 mg/kg, free MMAE 0.6 mg/kg, i.v. QW×4) is on record as “body weight loss tracked each other”; in data set [2] (5 mg/kg single i.v. dose, recovered at Day 7), around 15%; in data set [2] (10 mg/kg single i.v. dose), “greater than 20%”. Moreover, the blood neutrophil counts entry in data set [1] was “reduced neutrophil counts”. Moreover, in data set [2] (10 mg/kg single i.v. dose), the “toxicity” value is “significant toxicity”. Also, the half-life at 2 μM in data set [3] was found to be 17.1 min.

(Values after patent US20240285785A1, “TARGETING SORTILIN” (priority 2022, published 2024).)
